Assay results reported in IntAct's records for PubMed 21041660.

B1: Cell division control protein 6 homolog (Homo sapiens), Q99741 (parent)
chain: MPQTRSQAQATISFPKRKLSRALNKAKNSSDAKLEPTNVQTVTCSPRVKALPLSPRKRLGDDNLCNTPHLPPCSPPKQGKKENGPPHSHTLKGRRLVFDNQLTIKSPSKRELAKVHQNKILSSVRKSQEITTNSEQRCPLKKESACVRLFKQEGTCYQQAKLVLNTAVPDRLPAREREMDVIRNFLREHICGKKAGSLYLSGAPGTGKTACLSRILQDLKKELKGFKTIMLNCMSLRTAQAVFPAIAQEICQEEVSRPAGKDMMRKLEKHMTAEKGPMIVLVLDEMDQLDSKGQDVLYTLFEWPWLSNSHLVLIGIANTLDLTDRILPRLQAREKCKPQLLNFPPYTRNQIVTILQDRLNQVSRDQVLDNAAVQFCARKVSAVSGDVRKALDVCRRAIEIVESDVKSQTILKPLSECKSPSEPLIPKRVGLIHISQVISEVDGNRMTLSQEGAQDSFPLQQKILVCSLMLLIRQLKIKEVTLGKLYEAYSKVCRKQQVAAVDQSECLSLSGLLEARGILGLKRNKETRLTKVFFKIEEKEIEHALKDKALIGNILATGLP

Variants of: B1
Conditions: with cdk1_human CDK1, P06493
Sequence of cdk1_human CDK1, P06493 (P06493 whole entry, looked up): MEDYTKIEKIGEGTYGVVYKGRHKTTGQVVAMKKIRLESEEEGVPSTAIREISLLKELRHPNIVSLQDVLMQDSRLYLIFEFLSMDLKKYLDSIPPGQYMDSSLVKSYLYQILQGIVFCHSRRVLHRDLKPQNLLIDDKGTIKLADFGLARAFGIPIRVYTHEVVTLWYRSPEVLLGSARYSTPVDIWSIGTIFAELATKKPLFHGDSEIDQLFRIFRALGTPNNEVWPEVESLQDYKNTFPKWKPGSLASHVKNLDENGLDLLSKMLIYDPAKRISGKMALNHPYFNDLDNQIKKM

Row | Variant | effect of a mutation on the interaction
1 | MPQTRSQAQATISFPKRKLSRALNKAKNSSDAKLEPVNVQTVTCSPRVKALPLSPRKRLGDDNLCNTPHLPPCSPPKQGKKENGPPHSHTLKGRRLVFDNQLTIKSPSKRELAKVHQNKILSSVRKSQEITTNSEQRCPLKKESACVRLFKQEGTCYQQAKLVLNTAVPDRLPAREREMDVIRNFLREHICGKKAGSLYLSGAPGTGKTACLSRILQDLKKELKGFKTIMLNCMSLRTAQAVFPAIAQEICQEEVSRPAGKDMMRKLEKHMTAEKGPMIVLVLDEMDQLDSKGQDVLYTLFEWPWLSNSHLVLIGIANTLDLTDRILPRLQAREKCKPQLLNFPPYTRNQIVTILQDRLNQVSRDQVLDNAAVQFCARKVSAVSGDVRKALDVCRRAIEIVESDVKSQTILKPLSECKSPSEPLIPKRVGLIHISQVISEVDGNRMTLSQEGAQDSFPLQQKILVCSLMLLIRQLKIKEVTLGKLYEAYSKVCRKQQVAAVDQSECLSLSGLLEARGILGLKRNKETRLTKVFFKIEEKEIEHALKDKALIGNILATGLP [T37V] | disrupting interaction

Variants of: B1
Conditions: with plk1_human PLK1, P53350
Sequence of plk1_human PLK1, P53350 (P53350 whole entry): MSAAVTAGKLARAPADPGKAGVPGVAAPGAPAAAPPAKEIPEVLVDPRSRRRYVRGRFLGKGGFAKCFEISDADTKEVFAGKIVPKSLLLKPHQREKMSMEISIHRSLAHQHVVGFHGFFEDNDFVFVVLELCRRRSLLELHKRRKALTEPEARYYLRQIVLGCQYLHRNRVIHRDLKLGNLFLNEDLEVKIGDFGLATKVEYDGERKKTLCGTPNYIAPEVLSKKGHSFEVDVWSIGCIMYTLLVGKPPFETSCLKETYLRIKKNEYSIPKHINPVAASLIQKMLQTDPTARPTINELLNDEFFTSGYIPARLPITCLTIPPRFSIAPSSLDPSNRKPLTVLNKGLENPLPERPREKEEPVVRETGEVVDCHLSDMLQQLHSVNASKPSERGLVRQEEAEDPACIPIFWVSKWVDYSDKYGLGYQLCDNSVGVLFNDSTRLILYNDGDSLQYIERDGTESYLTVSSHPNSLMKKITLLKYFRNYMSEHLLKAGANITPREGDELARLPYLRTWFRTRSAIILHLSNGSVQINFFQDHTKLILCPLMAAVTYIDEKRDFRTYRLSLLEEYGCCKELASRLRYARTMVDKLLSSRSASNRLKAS

Row | Variant | effect of a mutation on the interaction
2 | MPQTRSQAQATISFPKRKLSRALNKAKNSSDAKLEPVNVQTVTCSPRVKALPLSPRKRLGDDNLCNTPHLPPCSPPKQGKKENGPPHSHTLKGRRLVFDNQLTIKSPSKRELAKVHQNKILSSVRKSQEITTNSEQRCPLKKESACVRLFKQEGTCYQQAKLVLNTAVPDRLPAREREMDVIRNFLREHICGKKAGSLYLSGAPGTGKTACLSRILQDLKKELKGFKTIMLNCMSLRTAQAVFPAIAQEICQEEVSRPAGKDMMRKLEKHMTAEKGPMIVLVLDEMDQLDSKGQDVLYTLFEWPWLSNSHLVLIGIANTLDLTDRILPRLQAREKCKPQLLNFPPYTRNQIVTILQDRLNQVSRDQVLDNAAVQFCARKVSAVSGDVRKALDVCRRAIEIVESDVKSQTILKPLSECKSPSEPLIPKRVGLIHISQVISEVDGNRMTLSQEGAQDSFPLQQKILVCSLMLLIRQLKIKEVTLGKLYEAYSKVCRKQQVAAVDQSECLSLSGLLEARGILGLKRNKETRLTKVFFKIEEKEIEHALKDKALIGNILATGLP [T37V] | disrupting interaction
